Measurements reported in patent US20090062199A1, “Nogo Receptor Polypeptides and Polypeptide Fragments and Uses Thereof” (Biogen Idec MA Inc., priority 2005, published 2009).

T1: TAJ (UniProt Q9NS68 30-170, limits assumed)
T1 construct: also called TROY
T1 sequence (looked up): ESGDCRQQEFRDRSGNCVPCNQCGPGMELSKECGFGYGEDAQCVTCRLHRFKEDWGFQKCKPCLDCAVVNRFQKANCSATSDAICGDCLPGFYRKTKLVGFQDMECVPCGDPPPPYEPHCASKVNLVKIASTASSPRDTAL

T2: Nogo-66 (Homo sapiens, UniProt Q9NQC3)
T2 construct: Nogo-66 is a 66 amino acid peptide from NogoA
T2 sequence (Q9NQC3 1055-1120 limits assumed): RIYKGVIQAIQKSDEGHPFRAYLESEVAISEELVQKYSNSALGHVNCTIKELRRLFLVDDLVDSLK

T3: p75 (Homo sapiens, UniProt P08138)
T3 sequence (P08138 29-427): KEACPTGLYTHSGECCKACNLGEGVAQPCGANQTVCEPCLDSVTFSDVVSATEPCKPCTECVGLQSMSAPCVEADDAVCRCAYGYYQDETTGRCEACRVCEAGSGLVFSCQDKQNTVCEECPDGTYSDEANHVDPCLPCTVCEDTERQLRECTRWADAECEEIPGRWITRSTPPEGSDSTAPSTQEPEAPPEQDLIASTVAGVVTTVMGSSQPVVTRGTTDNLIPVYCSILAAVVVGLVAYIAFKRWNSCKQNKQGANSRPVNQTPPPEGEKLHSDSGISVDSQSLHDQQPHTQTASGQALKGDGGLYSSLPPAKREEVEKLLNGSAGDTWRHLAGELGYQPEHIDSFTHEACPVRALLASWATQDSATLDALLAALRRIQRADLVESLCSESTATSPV

T4: TAJ (Homo sapiens, UniProt Q9NS68)
T4 sequence (Q9NS68 30-423): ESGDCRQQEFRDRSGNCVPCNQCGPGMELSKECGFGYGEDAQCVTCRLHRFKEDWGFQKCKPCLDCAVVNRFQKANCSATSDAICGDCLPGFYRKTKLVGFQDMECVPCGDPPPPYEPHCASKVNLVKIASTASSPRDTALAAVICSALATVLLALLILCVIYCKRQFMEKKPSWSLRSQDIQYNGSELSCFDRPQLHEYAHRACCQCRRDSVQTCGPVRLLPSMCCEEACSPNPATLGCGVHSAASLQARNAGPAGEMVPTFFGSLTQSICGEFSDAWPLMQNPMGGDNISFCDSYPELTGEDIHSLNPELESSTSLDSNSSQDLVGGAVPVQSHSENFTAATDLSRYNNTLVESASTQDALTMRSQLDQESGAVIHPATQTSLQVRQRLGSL

T5: OMgp (Homo sapiens, UniProt P23515)
T5 sequence (P23515 25-417): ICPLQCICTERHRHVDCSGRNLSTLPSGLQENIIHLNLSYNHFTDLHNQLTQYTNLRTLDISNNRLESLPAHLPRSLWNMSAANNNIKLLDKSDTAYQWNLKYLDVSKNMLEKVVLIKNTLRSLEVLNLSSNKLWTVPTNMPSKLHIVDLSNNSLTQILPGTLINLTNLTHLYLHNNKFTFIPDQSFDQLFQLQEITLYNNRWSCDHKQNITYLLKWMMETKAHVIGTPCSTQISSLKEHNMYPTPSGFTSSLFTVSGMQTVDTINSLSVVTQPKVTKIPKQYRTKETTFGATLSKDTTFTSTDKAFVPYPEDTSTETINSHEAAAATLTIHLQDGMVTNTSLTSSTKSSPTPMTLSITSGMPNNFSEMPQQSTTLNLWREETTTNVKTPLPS

T6: LINGO-1 (Homo sapiens, UniProt Q96FE5)
T6 sequence (Q96FE5 42-620): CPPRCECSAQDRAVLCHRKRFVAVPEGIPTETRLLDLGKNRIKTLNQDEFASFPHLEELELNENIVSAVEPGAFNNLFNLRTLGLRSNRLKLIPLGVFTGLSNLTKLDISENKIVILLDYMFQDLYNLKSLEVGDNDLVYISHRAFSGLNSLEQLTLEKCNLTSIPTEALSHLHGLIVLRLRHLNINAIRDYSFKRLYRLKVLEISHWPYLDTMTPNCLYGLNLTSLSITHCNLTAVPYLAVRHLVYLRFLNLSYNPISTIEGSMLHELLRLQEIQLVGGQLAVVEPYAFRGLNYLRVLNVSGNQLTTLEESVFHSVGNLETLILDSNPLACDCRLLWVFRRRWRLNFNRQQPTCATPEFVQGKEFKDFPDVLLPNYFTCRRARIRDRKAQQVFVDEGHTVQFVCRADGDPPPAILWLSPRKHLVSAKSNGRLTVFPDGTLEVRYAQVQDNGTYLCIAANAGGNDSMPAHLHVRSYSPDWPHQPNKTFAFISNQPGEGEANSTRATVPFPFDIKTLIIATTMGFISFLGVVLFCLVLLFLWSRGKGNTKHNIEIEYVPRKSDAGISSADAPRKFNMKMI

B1: Human NgR1, excluding the GPI domain (FL-NgR1, residues 27-438) with a flag tag at its N-terminus (receptor)
chain: CPGACVCYNEPKVTTSCPQQGLQAVPVGIPAASQRIFLHGNRISHVPAASFRACRNLTILWLHSNVLARIDAAAFTGLALLEQLDLSDNAQLRSVDPATFHGLGRLHTLHLDRCGLQELGPGLFRGLAALQYLYLQDNALQALPDDTFRDLGNLTHLFLHGNRISSVPERAFRGLHSLDRLLLHQNRVAHVHPHAFRDLGRLMTLYLFANNLSALPTEALAPLRALQYLRLNDNPWVCDCRARPLWAWLQKFRGSSSEVPCSLPQRLAGRDLKRLAANDLQGCAVATGPYHPIWTGRATDEEPLGLPKCCQPDAADKASVLEPGRPASAGNALKGRVPPGDSPPGNGSGPRHINDSPFGTLPGSAEPPLTAVRPEGSEPPGFPTSGPRRRPGCSRKNRTRSHCRLGQAGSGG
notes: Soluble protein expressed in CHO cells; also called human FL-NgR1; NgRI; not shown: N-terminal flag tag
B2: FL-NgR1: Human NgR1 excluding the GPI domain, residues 27-438 (SEQ ID NO:22), N-terminal flag tag, expressed in CHO cells (protein)
chain: B1 chain
modifications: N-terminal FLAG tag; Human NgR-1

Tests used:
TAJ [1] = molecular target: T1, TAJ; assay: ELISA; reference is NgR1(310)
Nogo-66 = molecular target: T2, Nogo-66; assay: ELISA binding of FL-NgR1 to Nogo-66; conditions: compared with truncated versions containing the LRR region alone
p75 = molecular target: T3, p75; assay: ELISA binding of FL-NgR1 to p75; conditions: compared with truncated versions containing the LRR region alone
TAJ [2] = molecular target: T4, TAJ; assay: ELISA binding of FL-NgR1 to TAJ; conditions: compared with truncated versions containing the LRR region alone
Source text: (§1) On size exclusion chromatography (SEC), the protein eluted as a single peak with a mass of about 80 kDa (FIG. 2B). […] See, for e.g., Shao, et al., (2005), Neuron 45, 353-359. A 10-fold higher affinity for Taj was seen using FL-NgR1 compared with the truncated versiox NgR1 (310) containing just the LRR region as described in Id.

OMgp = molecular target: T5, OMgp; assay: ELISA binding of FL-NgR1 to OMgp; conditions: compared with truncated versions containing the LRR region alone
LINGO-1 = molecular target: T6, LINGO-1; assay: ELISA binding of FL-NgR1 to LINGO-1; conditions: compared with truncated versions containing the LRR region alone
Source text: as §1

AP-OMgp = assay: Competition ELISA, anti-NgR1 antibody blocking binding of AP-OMgp to FL-NgR1; conditions: anti-NgR1 antibody used to block binding; FIG. 2C
Source text: as §1

AP-Lingo-1 = assay: Competition ELISA, anti-NgR1 antibody blocking binding of AP-Lingo-1 to FL-NgR1; conditions: anti-NgR1 antibody used to block binding; FIG. 2C
Source text: as §1

Row | Molecule | fold higher affinity compared with NgR1 (310) (TAJ [1]) [fold] | binding in an ELISA assay to Nogo-66 (Nogo-66) | binding in an ELISA assay to p75 (p75) | binding in an ELISA assay to TAJ (TAJ [2]) | binding in an ELISA assay to OMgp (OMgp) | binding in an ELISA assay to LINGO-1 (LINGO-1) | binding of AP-OMgp in competition ELISA (AP-OMgp) | binding of AP-Lingo-1 in competition ELISA (AP-Lingo-1)
1 | B1 | 10 | – | – | – | – | – | – | –
2 | B2 | – | as well as or better than truncated versions containing the LRR region alone | as well as or better than truncated versions containing the LRR region alone | as well as or better than truncated versions containing the LRR region alone | as well as or better than truncated versions containing the LRR region alone | as well as or better than truncated versions containing the LRR region alone | verified the activities of FL-NgR1 | verified the activities of FL-NgR1
